Results published in the DeepSol protein solubility set.

Experiment: soluble on expression in E. coli; label from the status in PepcDB or PDB records

Row | Sequence | soluble on expression in E. coli
1 | MSLSRVEETGLGFVGTFESGFTQGTVGVGVDAIGMLGLKLDSGKGRAGTGLFPTGSDGRSQDDYSKGGGAVKFRISDTVLKVGDQFTALPVFATDDSRLLPEIAQGTLITSNEIEGLTLHAGHFTSLTAQEQTNRDSFGLKEANVVGGTYAFTDNLSTSLYYSKVEDYWRKYYANVNWALPISDNQGLVFDFNIYDTKSEGSAEYRAFDGDKLDNRAFSLSGAYNIGAHTFTLAYQKVTGDGDYGYGIDGGGTIFLANSVARSDFNAEDEKSWQARYDLNFAEYGIPGLTFMTRYVRGSDANVAGTSNGKEWERDVDIKYVLQEGPAKDLSFRVRQATYRSSDGVYYDSPSIDELRLIVEYPLNILEGHHHHHH | soluble
2 | MSLSRVFVIGAAGKVGQRLIKKLGDGGHEVIALHRKEEQSVLIKAAGALPLLANLVEMDAAALSSAMAGSDVVVFTAGAGGAGIELTNAIDGEGLKTSVAAAELAGVRRFLLVSAFPEAARGTDTSAGFENYMRVKKHADVCLASSELDWVILRPGTLVDSAGSGQVRAGLAIPYGDIPRDDVAAFLAALVDQPEISRQIIELTEGTTPVELAIKALGTREGHHHHHH | soluble
3 | MSLSSERLIYLPLGGAGEIGMNAYVYGYGKPGKERLIVVDLGVAFPDMDTSPGVDLIIPDIAWLEERRDQIEAIFITHAHEDHIGAVAHTYDRLRAPIYTRKFTANIAKRKMDEYGHPDDAVTTVAPWPQQTTVGPFKVGFLPMSHSIPESSSLVIDVAGDRLIHSGDFKIDMTPGVGEPYDPELWADVSKDGVKALICDSTNVFSQHAGRSEATVGPEIEKLLGTAQGMVVATTFASNVARVKTLADAGERAGRSVVLLGRAMKRMVEASLETGVMKDFPPVVSPEEARGIPRENLMLLVTGSQGERRAASAQLARGKYMGLEMKEGDMFLFSSKTIPGNERGVIKVINAFSEMGVDIVDDSSGLYHVSGHANRPDLETLHDVVKPQILIPMHGEHRHLREHTKIANAKGMKGVLAVNGMMIDLSGNEPKVVEYVDSGRTYLDGSTQIGAMDGVVRDRIRMALNGHVTVTVILDENDEALGDPWVDAMGLPEQGRSKTSLVDVLEADLAQFLGRANAKTLRDDDKLHDGLKRTVRQSANDEIGKKPEVTIVVSRLSEGHHHHHH | soluble
4 | MSLSSFEGKVAVITGAGSGIGRALALNLSEKRAKLALSDVDTDGLAKTVRLAQALGAQVKSDRLDVAEREAVLAHADAVVAHFGTVHQVYNNAGIAYNGNVDKSEFKDIERIIDVDFWGVVNGTKAFLPHVIASGDGHIVNISSLFGLIAVPGQSAYNAAKFAVRGFTEALRQEMLVARHPVKVTCVHPGGIKTAVARNATVADGEDQQTFAEFFDRRLALHSPEMAAKTIVNGVAKGQARVVVGLEAKAVDVLARIMGSSYQREGHHHHHH | not soluble
5 | MSLSSFPDVPGWVKPSVDYLINKNVLSGMPDGTFSPNLEIDRGSSAKVMAKILELPIDQSAKPSFDDSKSHWAAPYIAAIEKAGVIKGDGKGNFNPTGKLTRGAMASMLVHAYKLQEKVTGNPPTVFNDLKDHWSEKYVNILVELGISNGYGDDNWKPDQTITRAETVSLVARTDEGHHHHHH | not soluble
6 | MSLSTIEDVAKLAGLSRTTVSRVINNHPYVSDEKKKRVQLAMKHLGFVPNSAARRLRKQKTETIAVLVPRITNPFFSRFIEAIEIAASEHKYKLIICQTRYLPEKEMEYLQLLSTKQVDGIILCSLENQWEDVEPYLQHGPIVLCNEYIEEANVPTVKFDHAQGAYIAAKHVLEQGYRNLIFCRGNETKVVSQQRKMGFLRAITEKSRQVEAIDFLENAFSWEDGKRIFHEVLKDKKNPTAILAGGDEVAAGIISEAKRHDWSIPDDLAVIGFDNQILSQITEPGITTIEQPIDEMARKVVDLMMDKIHTKNYRKKELYEFELELLVKGSTMKDTMLLAEGHHHHHH | not soluble
7 | MSLSTPAVQALSHLVRDVTMKSIVLSAFGTMPIVDERPLPVAGPQEILIRMTHASLNPIDRRIAEGFFKDRFEHRFPLTLGIDGAGVVESIGEQVSDFEVGDSVFGRFLHSYVGNGSFSEYVAISADATLLHTPLGVPPALAAALPTAATTALQAVESLGLPPGSVVLIMGATGGVGTFAVQLARAKGYQVLASASTEAAPWLAQLGVEHVFDRTQNVPERLSTGWPAGINGLIDLVNPAPAFAELVSCIAPGGTALSSIWSATADVAAARGVRAVNLEMLPNREDLRTLARQVLSGSLRVVIDKHISLEAVPAVMSQRQAGGARGKTVIDIAEGHHHHHH | soluble
8 | MSLSTRSRIREERKDPLSALAREYGGSKRNALLKWCQKKTEGYQNIDITNFSSSWNDGLAFCALLHTYLPAHIPYQELNSQDKKRNFTLAFQAAESVGIKSTLDINEMARTERPDWQNVMLYVTAIYKYFETEGHHHHHH | soluble
9 | MSLTALSSVDFCLPEHITPEIFLRDYWQKKPLVIRNGLPEIVGQFEPQDIIELAQNEDVTARLVKTFSDDDWKVFFSPLSEKDFQKLPEKWSVLVQNLEQWSPELGQLWNKFGFIPQWQRDDIMVSYAPKGGSVGKHYDEYDVFLVQGYGHRRWQVGKWCDASTEFKPNQSIRIFDDMGELVIDEVMNPGDILYIPARMAHYGVAEDDCLTFSFGLRYPNLSNLIDGISKGFCHQDPDLNLSEFDLPLRLSQSEQRTGKLADENIQAMKQLLLDKLAHSEAFDTLFKQAVASAVSSRRYELLVSDEMCDPDEVRSILEEDGAFLSQDNNCKLLYTENPLRIYANGEWLDELNIIESEVLKRLSDGESLDWAFLSDLANKTEDPETSMDLLLDSICNWVDDGWALIEEGGSHHHHHH | soluble
10 | MSLTDAILYELHIRDATIHPGSGVSKKGTYKGLMEEGTTGRNGTLTGLSHIKDLGVTHVELLPLYCFGGVDEANPSSAYNWGYNPLYYNAPTGYYATNPSDPYNRIVECKQLIETFHEHGIRVIIDVVYNHVYERELSSFEKLVPGYYFRHGENGMPSNGTGVGNDIASERKMMRKFIVESILYWLTEYNVDGFRFDLMGILDVDTINIIEKEVRNIKRDALLLGEGWDLQTPLPLEEKATLNNAKKMPHIAQFNDQFRDGIKGSTFHINKRGFAFGGYVDCNHLQYIASGSLLSMKETGLFLEPVQSINYVECHDNMTMWDKLMRSNEESEEILKKRHLLATAMVILSQGIPFLHAGQEFYRTKQGNENSYNANDEINQLDWDRKEKEIETVNYIKGLIAIRKEHGAFRLQNADLIKKHMTFLQTSPEVLAYHLEHVESFGPWKEIVVLFNSSLEAKTVQLPKEETWHVLVNEKQAKIEPISSFRGKELRLAPISTYILTIMEGHHHHHH | not soluble
11 | MSLTDDLKVCNQTGVGEAINQIYKDDGRRCEGYESRDKKCLCISDNNTSLYAILSGHNGVTVAENALQEMAAELLLGQLNVCNTDEAVKELIRQSFMSVEKGYFDSINPHVATKTAIQLHLSADGMNQYEISQQFENVLQKLDSLNNALSVGSSAVLALIHRSHLYLGNIGNCRALLCKTDEHDTLTVTQLSVDHNLLNAEEAARLFRLGLMAQNFEGVPLYSTRCIGNYLGKAGYKDCNFLSSATAEPVIFEPEIVGGIQITPACRFLVLMSSGLCRALHEIFPGDASTGNRELVRMISEEFQNQSTLGGVAQSVVHRIVQAHHDTYMQLVEEHRSVTFNSRDDVTLLIRNFNYAEGHHHHHH | not soluble
12 | MSLTDVMFKSQIANQLKNLRKSRGLSLDATAQLTGVSKAMLGQIERGESSPTIATLWKIASGLEASFSAFFANDPQLLSSERSFPDDLNMKIHTLFPYAADTGLEIFEITLLDHHQQMSSPHALGVIEYIHVLEGIMKVFFDEQWHELQQGEHIRFFSDQPHGYAAVTEKAVFQNIVAYPRREGGSHHHHHH | soluble
13 | MSLTEAPRVRLAEAEVFERPVEFRFPFRFGSARVATAPQAFVRVRVEDARGRSAIGWSAEMMMPKWFDKNPGLSPEDNVEQLRASLRLAIEGLTSLQAQTPFGLHAAAEGDHHRAAAGHGLPALVASYGLALLDRAILDALCRMTGASAAGAVRANLPGITGATAPDLEGFDLARFLSRLEPGPRLAVRHTIGLADALTAADLAPGQRLEDGLPQTLEEVIAAYGHRYFKIKVSGRPAEDTRRLLAIAAVLDQRVDAYRVTLDGNEQFENADAVADLLDRIAEEPRLEKLRASALFFEQPIVRAEALSRPVTEVAGRMPLEIDESDGDIGAFLRARALGYAGISSKSCKGFYRALVNRARVEMWNAEAGAARSFMSAEDLTTQSGLALQQDLVLAALVGAGHVERNGHHYVDGMAGAPAAEQAAYLAHHGDLYESGSGRARLAIRGGEITFSTVLRSVGLGSSVEPDWVAMVSEGHHHHHH | not soluble
14 | MSLTETAIENSVTVFHIESDEIKGRIIGREGRNIRALEAATGVEIVVDDTPEAIVLSAFDPVRREIARLALHQLVTDGRIHPARIEEVVAKVRKQVEEEIIETGKRTTIDLGIHGLHPELIRIIGKMKYRSSYGQNLLQHARETANLCAVMASELGLNPKKAKRAGLLHDIGKVPDEEPELPHALLGMKLAEKFKEKPDICNAIGAHHDEIEMTSLLAPIVQVCDAISGARPGARREIVEAYIKRLNDLEQLAMSYPGVTKTYAIQAGRELRVIVGADKIDDKQTENLSGEIAKKIQDEMTYPGQVKITVIRETRAVSFAKEGHHHHHH | soluble
15 | MSLTETCDRFALIGAGPMGLAMAKVMLEQGIAFDGFELHSDVGGLWDIDGPRSTMYESAHLISSKRMTEFTDFPMEEAVAEYPSHRELKRYFHAFAARYGLRDHYRFGAEVLRCEPLGEPGAGWRVIWRDAEGEHTETYAGVMIANGTLSEPNMPTFQGRFDGELIHSSAYRHPSQFDGKRVLIVGAGNSGCDIAVDAIHHGALCDLSMRRGYYFVPKYVFGKPADTLGGMIKLPMWLKRRVDGMILKWFVGDPQKYGFPKPDYQLYESHPVVNSLVLYHAGHGDLRIRPDIDRFDGRRVIFADGSSEEYDMILAATGYKLFYPFIDRDLLNWQGDAPHLYLNALHPERDDLFVLGMIEASGLGWQGRHEQAEMVARYITGLRRGGAAAAELKAAKSAGFERATGGMNYLKLARMAYYVDKATYRGAVTGWIDRLKRAQSEGHHHHHH | soluble
16 | MSLTFHEIRFPEDISYGSTGGPEFSTSIVQTNNGSEYRKVNLSYSRNKYNIMYNMKSEDQLLKLINFFYVHKGKAIGFRFKDWSDYKAKKEHIGIGNDKQKKFQIIKTYSIDQHSYIRKITKPVINTVKIYYDDIEKVDGFSVNFSNGQIEFNTPPHNGVTIYADYEFDVPVRFDSDYLPYSMDNYNEHNCNNIALIEIKTEGHHHHHH | soluble
17 | MSLTGNPPNPAGIKTDYLWKKILTPQGLTDILENYAQVVEEKDEKTGKKKKVQIFPRYHQLDVVRKLLAHAEWHGAGMRYLVQHSAGSGKSNSIAWLAHQLISLKKDDKEIFDSIIVITDRRVLDKQIRDTIKQFAQVGSTVGHAERSGDLRKFIESGKKIIISTVQKFPFILDEIGNEHRGRKFAIIIDEAHSSQGGRTAAAMSEALSDSKDQKDPEDTINDALQKRMEARKMLPNASYFAFTATPKNKTLELFGEPYKDGDKIKHRPFHNYTMKQAIQEGFILDVLRYYTPVNSYYKLIKTVESDPEFDTKKAKKKLRKYVESHDYAIRLKAEIIVDHFQEQVIALNKIGGQARAMVVTNGIERAIQYYHAIRDYLLELNSPYKAIVAFSGEHEYGGVKVTEATLNGFPSSQIEDKIEEEPYRFLICADKFQTGYDEPLLHTMYVDKVLSGIKAVQTLSRLNRAHPKKHDVFVLDFMNDTDTIQDAFSDYYRTTVLSDETDPNKLHDLKSDLDSYQAYSPEQIEQFVELYLGGADRDKLDPILDVCVATYKDHLDEDEQVDFKSKAKAFSRTYGFLASILPYTNADWEKLSIFLNFLIPKLPAPREEDLSKGILEAIDMDSYRVEKQAVVNIQLPDSDSEIEPVPTEAGGFKPEPELDRLSNILKTFNDQFGNIRWTDSDRVHRLITEEIPARVAADVAYQNAKKNSDKQNAKIEHDKALARVMIALMKDDTQLFKLFSDNESFRRTLTDAIFERTYSEGHHHHHH | not soluble
